Results published in patent publication US20240279678A1.

Legend:
[1] = molecular target: HIV envelope gp120 of HIV recombinant strain NL43 that expresses GFP (HIV-1); test: cell-based or functional assay
[2] = molecular target: HIV envelope gp120 of HIV-1 strain HXB2 engineered to express Green Fluorescence Protein (HIV-1) (UniProt P04578); test: cell-based or functional assay

3BNC117 antibody (IL-2 secretory signal construct, expressed from AGT112)
% GFP positive (HIV-infected) cells, transduced PBMC, donor NY025 (control without vector 3.96%) [1]: 1.79% | % GFP positive (HIV-infected) cells, transduced PBMC, donor NY026 (control without vector 0.57%) [1]: 0.3%

VRC01 antibody (IL-2 secretory signal construct, expressed from AGT111)
% GFP positive cells, CD4 T cells, AGT111 at 2 MOI, day 5 (no vector 0.71%) [1]: 0.38% | % GFP positive cells, CD4 T cells, AGT111 at 2 MOI, day 7 (no vector 2.18%) [1]: 1.37% | % GFP positive cells, CD4 T cells, AGT111 at 4 MOI, day 5 (no vector 0.71%) [1]: 0.32% | % GFP positive cells, CD4 T cells, AGT111 at 4 MOI, day 7 (no vector 2.18%) [1]: 0.94% | % GFP positive cells, CD4 T cells, AGT111 at 8 MOI, day 5 (no vector 0.71%) [1]: 0.25% | % GFP positive cells, CD4 T cells, AGT111 at 8 MOI, day 7 (no vector 2.18%) [1]: 0.36% | decrease in HIV infection, C8166 cells [1]: 75.4% | percent inhibition (cells protected), day 5, AGT111 MOI 8 [1]: 88% | percent inhibition (cells protected), day 7, AGT111 MOI 8 [1]: 93% | percent inhibition (cells protected), day 9, AGT111 MOI 2 [1]: 6% | percent inhibition (cells protected), day 9, AGT111 MOI 4 [1]: 7%

VRC01 antibody (antibody secretory signal construct, expressed from AGT113)
% HIV positive primary CD4 T cells, AGT113-transduced (un-transduced 1.28%) [1]: 0.36% | decrease in HIV infection, C8166 cells [1]: 96.7%

sCD4(D1+D2) (from UniProt P01730 26-203) (receptor)
% GFP positive cells, FIG. 8A, AGT116-transduced PBMC (control 0.46%) [1]: 0.3% | % GFP positive cells, FIG. 8B, AGT116-transduced PBMC (control 7.75%) [1]: 3.67% | % HIV positive primary CD4 T cells, AGT116-transduced (control 2.83%) [1]: 2.65%

sCD4(D1+D2)-IgG1 Fc (Fc fusion)
% GFP positive C8166 cells, NL4-GFP with version 1, average [1]: 8.47% | % GFP positive C8166 cells, NL4-GFP with version 1, replicate 2 [1]: 7.49% | % GFP positive cells, FIG. 8A, AGT117-transduced PBMC, column NL43-sCD4-Ig (control 0.46%) [1]: 0.26% | % GFP positive cells, FIG. 8B, AGT117-transduced PBMC, column NL43-sCD4-Ig (control 7.75%) [1]: 2.98% | % HIV positive primary CD4 T cells, AGT117-transduced (control 2.83%) [1]: 0.65% | decrease in HIV infection, primary CD4 T cells [1]: 77% | proportion of infected CD4 T cells, AGT117-transduced (no vector average of 2%) [1]: 0.024% | virus inhibition, NL4-GFP challenge of C8166 cells [1]: 53% | % GFP positive C8166 cells, HXB2-GFP with version 1, replicate 2 [2]: 1.22% | inhibition of virus infection, HXB2-GFP challenge of C8166 cells [2]: 91%
